Reference: the supplement of paper PMC7877785
± gives the uncertainty stated by the source.

Experiment: self-splicing fitness, log relative to wild type (ln ratio); higher = more splicing; Tetrahymena group I intron in knt gene, E. coli kanamycin selection, DiMSum; sequences stand for … in CUCUCU…GGAGGGAAAAGUUAUCAGGCAUGCACCUGGUAGCUAGUCUUUAAACCAAUAGAUUGCAUCGGUUUAAAAGGCAAGACCGUCAAAUUGCGGGAAAGGGGUCAACAGCCGUUCAGUACCAAGUCUCAGGGGAAACUUUGAGAUGGCCUUGCAAAGGGUAUGGUAAUAAGCUGACGGACAUGGUCCUAACCACGCAGCCAAGUCCUAAGUCAACAGAUCUUCUGUUGAUAUGGAUGCAGUUCACAGACUAAAUGUCGGUCGGGGAAGAUGUAUUCUUCUCAUAAGAUAUAGUCGGACCUCUCCUUAAUGGGAGCUAGCGGAUGAAGUGAUGCAACACUGGAGCCGCUGGGAACUAAUUUGUAUGCGAAAGUAUAUUGAUUAGUUUUGGAGUACUCGUGGUCG
Procedure, shortened: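 Pooled colonies went to amplicon sequencing on an Illumina HiSeq 2500 after six replicate transformations. The plates were LB agar with 100 μg/mL carbenicillin, 50 μM IPTG and 0.2% rhamnose, with or without 25 μg/mL kanamycin, incubated overnight at 37°C or 30°C. The E. coli BL21(DE3) library had all eight P1ex-region intron nucleotides randomised, the intron placed in the knt kanamycin-resistance gene on pET-22b(+). DiMSum fitness is the error-weighted combination of replicate fold changes, kanamycin against none, normalised to wild type.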

Sequence | self-splicing fitness (ln) (30 °C) | self-splicing fitness (ln) (37 °C)
GGGGAGCAAUAUUACGACUC | -0.891 ± 0.25 | -0.405 ± 0.5
GGUCAGCAAUAUUACGAGUA | -2.09 ± 0.18 | -1.32 ± 0.14
UUAAAGCAAUAUUACGUGCG | -0.23 ± 0.058 | -0.242 ± 0.085
GCCUAGCAAUAUUACGUGAA | -0.836 ± 0.073 | 0.346 ± 0.077
GCUCAGCAAUAUUACGAGAG | -1.03 ± 0.14 | -0.875 ± 0.14
GCCAAGCAAUAUUACGCUGU | -2.26 ± 0.12 | -1.36 ± 0.13
AAUGAGCAAUAUUACGGACA | -2.93 ± 0.45 | –
AAGCAGCAAUAUUACGGAAU | -3.08 ± 0.13 | -1.66 ± 0.11
GGUCAGCAAUAUUACGUGAU | -3.88 ± 0.22 | -2.14 ± 0.11
CUCCAGCAAUAUUACGCCUA | -2.87 ± 0.2 | -1.94 ± 0.2
AUGGAGCAAUAUUACGAGGC | -3.37 ± 0.34 | -2.44 ± 0.23
UAGGAGCAAUAUUACGGCAU | -4.07 ± 0.39 | -1.5 ± 0.25
AGGUAGCAAUAUUACGCAAA | -2.317 ± 0.023 | -1.37 ± 0.035
CUCCAGCAAUAUUACGGUCG | -0.742 ± 0.054 | -0.679 ± 0.071
CACAAGCAAUAUUACGCUAA | -2.58 ± 0.18 | -1.82 ± 0.16
CGCGAGCAAUAUUACGCGCC | -1.37 ± 0.28 | -1.66 ± 0.48
CUGAAGCAAUAUUACGUUUC | -2.72 ± 0.41 | –
UGCGAGCAAUAUUACGGCUC | -2.91 ± 0.31 | -3.21 ± 0.41
GCUAAGCAAUAUUACGCGAU | -2.05 ± 0.45 | -0.565 ± 0.25
CUUCAGCAAUAUUACGGUAG | -1.94 ± 0.12 | -0.92 ± 0.14
CGUUAGCAAUAUUACGAUGG | -0.465 ± 0.094 | -0.125 ± 0.13
GUGCAGCAAUAUUACGCAGA | -2.57 ± 0.46 | -1.53 ± 0.23
AUAUAGCAAUAUUACGAGCU | -2.13 ± 0.1 | -1.11 ± 0.1
UAUAAGCAAUAUUACGCCUA | 0.213 ± 0.12 | 0.0424 ± 0.17

Sequence | self-splicing fitness (ln) (30 °C) | self-splicing fitness (ln) (37 °C)
GUUAAGCAAUAUUACGGCCC | 0.0722 ± 0.14 | 0.517 ± 0.17
GGGGAGCAAUAUUACGUGUG | -3.08 ± 0.27 | -1.7 ± 0.21
UCUGAGCAAUAUUACGCAGU | -2.4 ± 0.35 | -1.08 ± 0.21
GCCGAGCAAUAUUACGCGAA | -1.84 ± 0.12 | -1.34 ± 0.17
UCGUAGCAAUAUUACGCUGG | -3.09 ± 0.15 | -1.88 ± 0.15
CUAAAGCAAUAUUACGGGCG | -0.0163 ± 0.069 | -0.208 ± 0.081
AGACAGCAAUAUUACGAUUC | -1.12 ± 0.08 | -0.569 ± 0.11
GCCGAGCAAUAUUACGCUCC | -0.576 ± 0.44 | –
CCCGAGCAAUAUUACGUGCA | -3.5 ± 0.2 | -1.52 ± 0.15
ACGAAGCAAUAUUACGGCCC | -1.25 ± 0.2 | 0.0496 ± 0.26
CGUCAGCAAUAUUACGUAUC | -3.54 ± 0.19 | -2.06 ± 0.19
UUUCAGCAAUAUUACGUUAC | -4.82 ± 0.28 | -2.66 ± 0.16
GCGCAGCAAUAUUACGCACA | -1.5 ± 0.12 | -0.062 ± 0.11
GGGCAGCAAUAUUACGCACG | 0.202 ± 0.26 | -1.16 ± 0.19
GUAAAGCAAUAUUACGCGAU | -3.23 ± 0.21 | -1.42 ± 0.19
UUCCAGCAAUAUUACGUGUA | -0.989 ± 0.058 | -0.572 ± 0.064
GCCCAGCAAUAUUACGCCCC | -1.48 ± 0.15 | -0.245 ± 0.22
CCCCAGCAAUAUUACGCAUG | -3.67 ± 0.17 | -2.75 ± 0.16
UGUGAGCAAUAUUACGGGGC | -3.14 ± 0.39 | -2.25 ± 0.33
GCUUAGCAAUAUUACGAUGA | -0.547 ± 0.12 | -0.556 ± 0.12
AAUAAGCAAUAUUACGUUCA | -0.963 ± 0.084 | -0.348 ± 0.12
AAGCAGCAAUAUUACGAUGG | -2.99 ± 0.13 | -1.84 ± 0.14
CUAGAGCAAUAUUACGCAAC | -1.32 ± 0.22 | –
AGUAAGCAAUAUUACGCGCA | -1.02 ± 0.16 | 0.0785 ± 0.16
